Target: T1, α-CGRP (human) 37-mer peptide (calcitonin gene-related peptide) (Homo sapiens, UniProt P06881, C-terminal amide (amidated Phe119))
T1 construct: human alpha-CGRP, mature 37-residue hormone; mature residues 26-37 correspond to 108-119 of the pro-hormone, so mature 1-37 would be 83-119; Only residues 26-37 (mature numbering; 108-119 of the pro-hormone) are visible in the complex structure; source: bought: Bachem
T1 chain: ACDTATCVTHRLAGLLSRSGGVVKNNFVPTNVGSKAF
Assay: crystal structure; CGRP mixed with the Fab, complex purified by SEC; crystals at 20°C in sitting drops, 26% PEG MME 550, 9.5 mM ZnSO4, 95 mM MES pH 6.5, 30 mM glycyl-glycyl-glycine; X-ray diffraction to 3.10 Å; 2 Fab and 2 CGRP per asymmetric unit
Conditions: both partners purified

binding result: binds
B1: eptinezumab antigen-binding fragment (Fab) (Fab, V domains shown)
VH: EVQLVESGGGLVQPGGSLRLSCAVSGIDLSGYYMNWVRQAPGKGLEWVGVIGINGATYYASWAKGRFTISRDNSKTTVYLQMNSLRAEDTAVYFCARGDIWGQGTLVTVSS
VL: QVLTQSPSSLSASVGDRVTINCQASQSVYHNTYLAWYQQKPGKVPKQLIYDASTLASGVPSRFSGSGSGTDFTLTISSLQPEDVATYYCLGSYDCTNGDCFVFGGGTKVEIK
notes: heavy-chain part of the papain Fab of eptinezumab (humanized IgG1); light chain of eptinezumab; CDR L3 holds a disulfide bond (Cys95, Cys100 are named); also called eptinezumab Fab; source: partial endoproteolysis of eptinezumab with immobilized papain; purified by Fc depletion followed by SEC

Source: PMC8810155, “The eptinezumab:CGRP complex structure – the role of conformational changes in binding stabilization” (Bioengineered, 2021)
